According to article PMC11212022:

Molecular target: recombinant protein A/G (Pierce)
Test: plasmonic metamaterial refractive-index sensing (resonance wavelength shift, reflection probe); protein A/G (500 ug/mL in PBS, 45 min) physisorbed on gold nanodiscs of the sensor, washed 30 min with PBS; IgG 50 ug/mL applied in a microfluidic cell, plateau after 45 min, washed 30 min with …; reflection read at 1 min intervals

“antimouse IgG (labeled with FITC) produced in goat (F5262, Sigma-Aldrich) (antibody)” gave a resonance wavelength shift of 2 nm.
